# Measurements from patent publication EP3848397A1 (NANJING UMAB-BIOPHARMA CO., LTD., dated 2021).
# Where two headings read alike, the source gives them in different places.
# T1: OX40 on Jurkat-OX40-NFκB-luciferase reporter cells (UniProt P43489 29-277)
# T1 sequence (looked up): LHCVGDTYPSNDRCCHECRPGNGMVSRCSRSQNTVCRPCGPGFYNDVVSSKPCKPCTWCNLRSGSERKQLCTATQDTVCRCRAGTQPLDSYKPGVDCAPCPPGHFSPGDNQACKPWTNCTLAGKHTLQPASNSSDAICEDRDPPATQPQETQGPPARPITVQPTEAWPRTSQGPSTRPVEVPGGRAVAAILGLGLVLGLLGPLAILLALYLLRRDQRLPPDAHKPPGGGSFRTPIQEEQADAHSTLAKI
# B1: MT01-C1 (antibody, human IgG1, V domains shown)
# VH: EVQLVQSGAEVKKPGESLKISCKASGYTFTSYVMHWLRQMPGKGLEWMGYINPYNDGTKYNEKFKGQVTISSDKSISTAYLQWSSLKASDTAMYYCANYYGSKFAMDYWGQGTMVTVSS
# VL: DIQMTQSPSSVSASVGDRVTITCRASQDISNYLSWYQQKPGGAVKLLIYYTSRLHSGVPSRFSGSGSGTDYTLTISSLQPEDFATYFCQQGITLPWTFGQGTKVEIK
# Columns and labels:
# Assay in all cases: cell-based or functional assay
# [1] = molecular target: T1, OX40 on Jurkat-OX40-NFκB-luciferase …
# [2] = molecular target: T1, OX40 on Jurkat-OX40-NFκB-luciferase …; remark: listed apart in the source
# [3] = molecular target: T1, OX40 on Jurkat-OX40-NFκB-luciferase …; remark: listed apart in the source
binder,measurement,setting,value
B1,"Activation activity of OX40 signaling pathway, EC50",[1],178 pM
same,EC50 of NFκB-luciferase reporter activation (FcR-mediated),[2],0.0452 ng/mL
same,"Activation activity of OX40 signaling pathway, EC50",[3],325 pM
